Here are results for 4 molecules from patent CN115819596A (YOUMAI BIOTECHNOLOGY LIANYUNGANG CO LTD, dated 2023).

The target in test [1] is T1, 人CEACAM5蛋白 (human CEACAM5 protein) (human, UniProt P06731 35-685, limits assumed).
T1 construct: Soluble protein used for ELISA coating and as SPR analyte; The construct is not described
T1 sequence (looked up): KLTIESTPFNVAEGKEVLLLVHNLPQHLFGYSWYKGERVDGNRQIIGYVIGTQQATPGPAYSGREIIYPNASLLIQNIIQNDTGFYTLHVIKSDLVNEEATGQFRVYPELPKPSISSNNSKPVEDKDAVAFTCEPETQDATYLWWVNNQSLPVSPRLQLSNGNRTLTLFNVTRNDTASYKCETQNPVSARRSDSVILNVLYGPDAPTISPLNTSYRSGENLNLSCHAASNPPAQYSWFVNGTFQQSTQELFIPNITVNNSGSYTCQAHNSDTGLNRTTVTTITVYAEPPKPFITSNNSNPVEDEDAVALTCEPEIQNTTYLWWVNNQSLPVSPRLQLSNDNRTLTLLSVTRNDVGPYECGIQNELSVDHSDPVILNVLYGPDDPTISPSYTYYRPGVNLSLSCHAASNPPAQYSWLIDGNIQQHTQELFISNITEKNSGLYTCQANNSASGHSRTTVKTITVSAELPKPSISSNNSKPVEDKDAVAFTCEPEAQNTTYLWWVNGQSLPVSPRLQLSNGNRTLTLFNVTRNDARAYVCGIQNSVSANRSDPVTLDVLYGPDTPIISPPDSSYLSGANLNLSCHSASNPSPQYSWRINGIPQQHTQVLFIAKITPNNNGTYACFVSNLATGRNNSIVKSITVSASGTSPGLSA
Briefly: SPR (Biacore 8K), antibody captured on protein A chip, human CEACAM5 protein as analyte. For orientation: In SPR one partner is held on a chip, and binding of the other changes the refractive index at the surface.

Test [2] has as its target 人CD47蛋白 (human CD47 protein) (human, UniProt Q08722 19-139, limits assumed). As to the kind of experiment: SPR (Biacore 8K), antibody captured on protein A chip, human CD47 protein as analyte.
Test [3] has as its target T2, CD47 on A549 cells (human, UniProt Q08722 19-323).
T2 construct: whole, on cells; A549 cells also express CEACAM5; also called A549细胞上CD47
As to the kind of experiment: grade of blocking of SIRPα-mouse Fc binding to CD47 on A549 cells, flow cytometry (reference antibody). Background: Flow cytometry measures light scatter and fluorescence of single cells or particles in a stream.

Test [4] addresses T3, 人CEACAM5 on CHO cells (CHO-CEACAM5) (human, UniProt P06731 35-685).
T3 construct: whole, on cells; also called 过表达人CEACAM5的CHO细胞
T3 sequence (looked up): T1 sequence (looked up)
As to the kind of experiment: flow cytometry on CHO cells overexpressing human CEACAM5.

The target of test [5] is T1, 人CEACAM5蛋白 (human CEACAM5 protein). Briefly: ELISA, plate-coated human CEACAM5 protein, goat anti-human IgG HRP.
Test [6] has the same target. Briefly: SPR (Biacore), antibody captured on protein A chip, CEACAM5 protein as analyte.
For test [7], the target named is 食蟹猴CEACAM5蛋白 (cynomolgus CEACAM5 protein) (cynomolgus monkey). As to the kind of experiment: ELISA, plate-coated cynomolgus CEACAM5 protein. A general note: An ELISA detects its analyte on a solid surface through an enzyme-linked reagent.
Test [8] deals with T1, 人CEACAM5蛋白 (human CEACAM5 protein). As to the kind of experiment: SPR (Biacore), antibody captured on protein A chip; the text value differs tenfold from Table 8.
The target of test [9] is T4, 人CEACAM6 on CHO cells (CHO-CEACAM6) (human, UniProt P40199 35-320).
T4 construct: whole, on cells
T4 sequence (looked up): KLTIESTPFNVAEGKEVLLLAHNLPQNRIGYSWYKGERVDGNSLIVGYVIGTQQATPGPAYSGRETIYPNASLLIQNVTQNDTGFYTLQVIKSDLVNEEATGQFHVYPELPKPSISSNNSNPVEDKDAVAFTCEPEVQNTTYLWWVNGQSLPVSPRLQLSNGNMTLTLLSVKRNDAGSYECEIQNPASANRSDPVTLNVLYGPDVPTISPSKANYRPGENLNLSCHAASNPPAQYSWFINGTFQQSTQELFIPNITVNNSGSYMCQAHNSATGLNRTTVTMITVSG
Briefly: flow cytometry on CHO-CEACAM6 stable cells.

Broadly, the Kd is the concentration at which binding is half-saturated. A word on the koff: it is a measure of how fast the partners let go of each other. Low readings indicate a long-lived complex, high ones a short-lived complex. A word on the kon: it is the second-order rate constant of association. A low value points to slower complex formation. In general, EC50 refers to the concentration needed to bring the measured effect to its halfway point.

B1: UM11-L34 (bispecific antibody)
chain 1: not shown
chain 2: DIQMTQSPSSLSASVGDRVTITCGASENIYGTLNWYQQKPGKSPKLLIYGATNLADAVPSRFSGSGSGTDYTLTISSLQPEDVATYYCQNVLSIPYTFGGGTKVEIKRTVAAPSVFIFPPSDEQLKSGTASVVCLLNNFYPREAKVQWKVDNALQSGNSQESVTEQDSKDSTYSLSSTLTLSKADYEKHKVYACEVTHQGLSSPVTKSFNRGEC
As to B1, in test [1], the dissociation constant Kd was 7.43 nM, the koff stood at 0.000173 s⁻¹ and the kon came out at 23300 M⁻¹ s⁻¹. Further, in test [2], the equilibrium dissociation constant (Kd) was determined as 65.7 nM, the off-rate constant (koff) was found to be 0.0451 s⁻¹ and the on-rate constant (kon) was determined as 686000 M⁻¹ s⁻¹.

B2: UM03-C4 (antibody, V domains shown)
VH: QVQLVESGGGVVQPGGSLRLSCAASGFTFSDYGMAWIRQAPGKGPEWIAFITNLASSIYYADTVTGRFTISRDNSKNTLYLQMNSLRAEDTAVYYCARAGDYRSFPYWGQGTLVTVSA
VL: EIVLTQSPATLSLSPGERATLSCSASSSVNYVNWYQQKPGQAPRILIYGISNLASGVPARFSGSGSGTDFTLTISSLEPEDFAVYYCQQRSTFPPYTFGQGTKLEIK
notes: IgG4 subtype of the humanized anti-human CD47 antibody; also called 人源化CD47单克隆抗体; CD47抗体的IgG4亚型
As for B2, in test [3], the binding result is “binds”.

B3: UM05-C9 (antibody, V domains shown)
VH: QVQLVQSGAEVKKPGASVKVSCKASGYTFTDYAMHWVRQAPGQGLEWIGVISTYSGHTNYNQKFKGRAIMTRDKSISTAYMELSRLRSDDTAVYYCVRGSTTAHYYTMDFWGQGTTVTVSS
VL: DIQMTQSPSSLSASVGDRVTITCGASENIYGTLNWYQQKPGKSPKLLIYGATNLADAVPSRFSGSGSGTDYTLTISSLQPEDVATYYCQNVLSIPYTFGGGTKVEIK
notes: Humanized anti-human CEACAM5/6 antibody; Only the variable domains are tied to it by name; Detected with goat anti-human IgG; also called 人源化抗体UM05-C9; CEACAM5/6抗体UM05-C9
For B3, the values for the concentration giving a half-maximal response (EC50) in test [4] and in test [5] were 0.637 µg/mL and 0.399 nM, respectively.

B4: UM05-L9 (antibody, human IgG1, kappa, V domains shown)
VH: QVQLQQSGPELVRPGVSVKISCKGSGYTFTDYAMHWVKQSHAKSLEWIGVISTYSGHTNYNQKFKGKAIMTVDKSSSTAYMDLARLTSEDSAIYYCVRGSTTAHYYTMDFWGQGTSVTVSS
VL: DIQMTQSPVSLSASVGETVTITCGASENIYGTLNWYQRKQGKSPQLLIYGATNLADGVSSRFSGSGSGRQYSLKISSLHPDDVATYYCQNVLSIPYTFGGGTKLEIKR
notes: also called 人-鼠嵌合抗体UM05-L9; 嵌合抗体UM05-L9
Consider B4, for which, in [6], the affinity, expressed as Kd, was 6.8 nM; the koff came out at 0.000445 s⁻¹; the on-rate constant (kon) turned out to be 65400 M⁻¹ s⁻¹. This molecule registered a concentration giving a half-maximal response (EC50) in test [7] of 0.678 nM. In test [8], this molecule displayed a Kd of 0.68 nM. Also, the binding result in [9] was “binds”.
